This note sets out measurements from patent US20250043319A1, “BIOSYNTHESIS OF CYCLOLAVANDULYL DERIVATIVES OF AROMATIC COMPOUNDS” (Invizyne Technologies, Inc., priority 2022, published 2025).

Type in all cases: biochemical
Assay [1] can be described thus: cell-free cyclolavandulylation activity screening of prenyltransferases, substrate naringenin. The note with it: cell-free reaction with CLDS and DMAPP (CLPP donor), 28° C., 48 hours, QTOF LC/MS, with vs without prenyltransferase. The text has this:
(§1) Genes encoding the following prenyltransferases were codon-optimized, synthesized, and cloned into the pET28a vector for protein expression and isolation/purification as described in Example 1. • NphB (Accession: 1ZB6_A) (SEQ ID NO: 8) • AbPT (Accession: KPI30840.1) (SEQ ID NO: 9) • SkPT (Accession: Q2L6E3.1) (SEQ ID NO: 10) • SvPT (Accession: WP_078899560.1) (SEQ ID NO: 11) • Sr1310PT (Accession: WP_057602682.1) (SEQ ID NO: 12) • NapT8 (Accession: ABS50461.1) (SEQ ID NO: 13) • NapT9 (Accession: ABS50490.1) (SEQ ID NO: 14) • Mcl23PT (Accession: AGH68908.1) (SEQ ID NO: 15) • CnqP3PT (Accession: WP_047018069.1) (SEQ ID NO: 16) • AtaWTPT (Accession: AMB20850.1) (SEQ ID NO: 17) • MzPT1 (Accession: WP_135330628.1) (SEQ ID NO: 18) • MzPT2 (Accession: WP_135330626.1) (SEQ ID NO: 19) B. Cell-Free Biosynthesis Reaction with CLPP and Various Aromatic Substrates
(§2) The cyclolavandulyl diphosphate synthase, CLDS was prepared as described in Example 1 and used in the synthesis of CLPP.
(§3) Stocks of the various aromatic compounds used as substrates for cyclolavandulylation activity screening were obtained from the following commercial sources: • Resveratrol (Fisher Scientific) 200 mM stock in DMSO • Luteolin (Fisher Scientific) 200 mM stock in DMSO • Naringenin (Fisher Scientific) 200 mM stock in DMSO • Tryptamine (Fisher Scientific) 200 mM stock in DMSO • Tryptophan (Fisher Scientific) 40 mM stock in water • Olivetolic acid (Toronto Research Chemicals) 200 mM stock in DMSO • Divarinic acid (Toronto Research Chemicals) 200 mM stock in DMSO • Phorolic acid (prepared in house) 200 mM stock in DMSO • Olivetol (Fisher Scientific) 200 mM stock in DMSO • Screening for cell-free biosynthesis was carried out as follows. 10 mM DMAPP, 5 mM MgCl2, 100 mM Tris-HCl (pH=8), and 4 mg/mL CLDS (SEQ ID NO: 4) were combined in a 6.80 mL reaction, which was incubated at 28° C. for 48 hours. This mixture was aliquoted into a 96-well plate (80 μL per well). The various prenyltransferases (18 μL, ˜1 g/L final concentration) listed above were screened across various substrates (2 μL of stock solution, variable concentration shown above), which were added to the wells and incubated at 28° C. for an additional 48 hours.
(§4) Analysis of the reaction mixture was carried out as follows: 50 μL of the reaction mixture were added to 1 mL MeOH. The resulting solution was vortexed, centrifuged at 17,200 g for 5 minutes, and transferred to an HPLC vial for analysis. HRMS-QTOF analyses of the cell free reactions was performed on an Agilent Technologies 6545 Accurate Mass QTOF LC/MS with a reverse-phase column (Agilent Infinity Lab Poroshell 120 ECC18, 2.7 μm, 3.0×50 mm) using positive ESI with 1% MeCN—H2O (0.1% FA) for 2 min followed by a linear gradient of 1-99% MeCN—H2O (0.1% FA) for 14 min with a flow rate of 0.4 mL/min.
(§5) Mass spectrometric (MS) analysis of chromatograms was carried out using MassHunter Qualitative Analysis 10.0. Targeted metabolomics using the exact m/z of the calculated proton adduct [H^+] in the presence and absence of prenyltransferase indicated the presence of cyclolavandulylated product.

Assay [2] is described as follows: cell-free cyclolavandulylation activity screening of prenyltransferases, substrate olivetolic acid. The settings on record: cell-free reaction with CLDS and DMAPP (CLPP donor), 28° C., 48 hours, QTOF LC/MS, with vs without prenyltransferase.
Source text: as §1, §2, §3, §4, §5

A short description of assay [3]: cell-free cyclolavandulylation activity screening of prenyltransferases, substrate luteolin. The settings on record: cell-free reaction with CLDS and DMAPP (CLPP donor), 28° C., 48 hours, QTOF LC/MS, with vs without prenyltransferase.
Source text: as §1, §2, §3, §4, §5

Assay [4] in a line: cell-free cyclolavandulylation activity screening of prenyltransferases, substrate divarinic acid. The note with it: cell-free reaction with CLDS and DMAPP (CLPP donor), 28° C., 48 hours, QTOF LC/MS, with vs without prenyltransferase.
Source text: as §1
(§6) The cyclolavandulyl diphosphate synthase, CLDS was prepared as described in Example 1 and used in the synthesis of CLPP. […]
as §5

Assay [5] is described as follows: cell-free cyclolavandulylation activity screening of prenyltransferases, summary over all tested substrates. The note with it: any of the tested substrates; cell-free biosynthesis reaction with CLDS from Streptomyces sp. CL190 and DMAPP.
Source text: as §1, §2, §3, §4, §5

Assay [6] is described as follows: cell-free cyclolavandulylation activity screening of prenyltransferases, substrate olivetol. The settings on record: cell-free reaction with CLDS and DMAPP (CLPP donor), 28° C., 48 hours, QTOF LC/MS, with vs without prenyltransferase.
Source text: as §1, §6, §5

The nature of assay [7]: cell-free cyclolavandulylation activity screening of prenyltransferases, substrate tryptophan. The note with it: cell-free reaction with CLDS and DMAPP (CLPP donor), 28° C., 48 hours, QTOF LC/MS, with vs without prenyltransferase.
Source text: as §1, §2, §3, §4, §5

A short description of assay [8]: cell-free cyclolavandulylation activity screening of prenyltransferases, substrate tryptamine. The settings on record: cell-free reaction with CLDS and DMAPP (CLPP donor), 28° C., 48 hours, QTOF LC/MS, with vs without prenyltransferase.
Source text: as §1, §2, §3, §4, §5

A short description of assay [9]: cell-free cyclolavandulylation activity screening of prenyltransferases, substrate resveratrol. The settings on record: cell-free reaction with CLDS and DMAPP (CLPP donor), 28° C., 48 hours, QTOF LC/MS, with vs without prenyltransferase.
Source text: as §1, §2, §3, §4, §5

The nature of assay [10]: cell-free cyclolavandulylation activity screening of prenyltransferases, substrate phorolic acid. The note with it: cell-free reaction with CLDS and DMAPP (CLPP donor), 28° C., 48 hours, QTOF LC/MS, with vs without prenyltransferase.
Source text: as §1, §6, §5

B1: NphBM31s: engineered soluble variant of prenyltransferase NphB from Streptomyces sp. CL190, SEQ ID NO: 6 (protein)
chain: MSEAADVERVYAAIEEAAGLLGVACARDKIWPLLSTFQDTLVEGGSVVVFSMASGRHSTELDFSISVPPSHGDPYAIVVEKGLFPATGHPVDDLLADIQKHLPVSMFAIDGEVTGGFKKTYAFFPTDNMPGVAELAAIPSMPPAVAENAELFARYGLDKVQMTSMDYKKRQVNLYFSELSAQTLEAESVLALVRELGLHVPNELGLKFCKRSFSVYPTLNWDTSKIDRLCFSVISTDPTLVPSSDEGDIEKFHNYATKAPYAYVGEKRTLVYGLTLSPKEEYYKLGAVYHITDVQRKLLKAFDSLED
modifications: Synthetic polymer
As to B1, the “presence of cyclolavandulylated product, Aromatic Compound (Substrate) Naringenin” value in assay [1] is on record as “No”. Further, in assay [2], the “presence of cyclolavandulylated product, Aromatic Compound (Substrate) Olivetolic Acid” value is recorded as “Yes”. The “presence of cyclolavandulylated product, Aromatic Compound (Substrate) Luteolin” value in assay [3] is given as “No”. In addition, in assay [4], the “presence of cyclolavandulylated product, Aromatic Compound (Substrate) Divarinic Acid” value was “Yes”. The “cyclolavandulylation activity with tested aromatic compounds (summary of Table 7)” value in [5] is recorded as “produced a cyclolavandulylated aromatic compound”. Also, the “presence of cyclolavandulylated product, Aromatic Compound (Substrate) Olivetol” value in [6] is recorded as “No”. The “presence of cyclolavandulylated product, Aromatic Compound (Substrate) Tryptophan” value in [7] is given as “No”. Also, the “presence of cyclolavandulylated product, Aromatic Compound (Substrate) Tryptamine” value in assay [8] was “No”. The “presence of cyclolavandulylated product, Aromatic Compound (Substrate) Resveratrol” value in [9] is “Yes”. Further, the “presence of cyclolavandulylated product, Aromatic Compound (Substrate) Phorolic Acid” value in assay [10] is reported as “No”.
